# Where two headings read alike, the source gives them in different places.
# B1: β-glycosidase from Sulfolobus solfataricus: extremely thermostable β-glycosidase from the thermoacidophilic archaeon Sulfolobus solfataricus, used as lactase (protein, UniProt P22498 1-489, looked up)
# Beta-galactosidase: MYSFPNSFRFGWSQAGFQSEMGTPGSEDPNTDWYKWVHDPENMAAGLVSGDLPENGPGYWGNYKTFHDNAQKMGLKIARLNVEWSRIFPNPLPRPQNFDESKQDVTEVEINENELKRLDEYANKDALNHYREIFKDLKSRGLYFILNMYHWPLPLWLHDPIRVRRGDFTGPSGWLSTRTVYEFARFSAYIAWKFDDLVDEYSTMNEPNVVGGLGYVGVKSGFPPGYLSFELSRRAMYNIIQAHARAYDGIKSVSKKPVGIIYANSSFQPLTDKDMEAVEMAENDNRWWFFDAIIRGEITRGNEKIVRDDLKGRLDWIGVNYYTRTVVKRTEKGYVSLGGYGHGCERNSVSLAGLPTSDFGWEFFPEGLYDVLTKYWNRYHLYMYVTENGIADDADYQRPYYLVSHVYQVHRAINSGADVRGYLHWSLADNYEWASGFSMRFGLLKVDYNTKRLYWRPSALVYREIATNGAITDEIEHLNSVPPVKPLRH
# B2: Thermoanaerobacter mathranii DSMZ 11426 L-arabinose isomerase (AraA), wild type, SEQ ID NO:2, produced in E. coli (Thermoanaerobacter mathranii subsp. … (protein)
# chain: MQTKKKPQIGFLGIMQELYDDMLPGITERQEKYAREVIEQLQDVADFHFPKAAKNRQDIEHIVKEFNEKDLDGIMIVMLTYGPATNIVNALRNNKLPIMLANIQPVPTVTEDWDMGDLTYNQGVHGAQDTANAILRMGIKCPIITEEWHSEEFKKFVGDWAKAVQTIKALRNMKIAQFGRMHGMYDILGDDAAFTRKIGPQINQEYIGEVYRYMETATEEEINAVIEENRKNFYIDPNLSEESHRYAARLQIGFKKFLINKGYDGFTAHFDVFKGDGRFKQIPMMAASNLMAEGYGYAAEGDAVTASLVAAGHVLIGDAHFTEMYAMDFKRNSILMSHMGEGNWKIARKDRPIKLIDRELGIGKLDNPPTIVFMAQPGPATLVSLVSLEGERYRLVVSKGEILDTEEAKYIEMPYFHFRPSTGVKACLDGWLTNGGTHHECLNLGDNTRRWKILCNLLDIEYVEV
# B3: L-arabinose isomerase from T. mathranii: L-arabinose isomerase (araA gene product, 465 amino acid residues) of Thermoanaerobacter mathranii DSMZ 11426 produced in E. coli; used as cell extract (protein)
# chain: MQTKKKPQIGFLGIMQELYDDMLPGITERQEKYAREVIEQLQDVADFHFPKAAKNRQDIEHIVKEFNEKDLDGIMIVMLTYGPATNIVNALRNNKLPIMLANIQPVPTVTEDWDMGDLTYNQGVHGAQDTANAILRMGIKCPIITEEWHSEEFKKFVGDWAKAVQTIKALRNMKIAQFGRMHGMYDILGDDAAFTRKIGPQINQEYIGEVYRYMETATEEEINAVIEENRKNFYIDPNLSEESHRYAARLQIGFKKFLINKGYDGFTAHFDVFKGDGRFKQIPMMAASNLMAEGYGYAAEGDAVTASLVAAGHVLIGDAHFTEMYAMDFKRNSILMSHMGEGNWKIARKDRPIKLIDRELGIGKLDNPPTIVFMAQPGPATLVSLVSLEGERYRLVVSKGEILDTEEAKYIEMPYFHFRPSTGVKACLDGWLTNGGTHHECLNLGDNTRRWKILCNLLDIEYVEV
# modifications: Thermoanaerobacter matrahnii, araA sequence
# notes: used as cell extract
# What was measured:
# [1] = cited from earlier work
# [2] = tested on: L-arabinose isomerase from T. mathranii; test: Metal ion requirement: reactivation of EDTA-dialysed enzyme; format: biochemical, Thermoanaerobacter mathranii; details: enzyme previously dialysed against 5 mM EDTA, metal salt added
# Method: (§1) Enzyme sample, 10-50 μl, was mixed with 950 μl of assay reagent and incubated at 65° C. for 60 min.
# [3] = tested on: Lactobacillus gayonii L-arabinose isomerase; details: read-out: Km for L-arabinose; Reference 5: Nakamatu and Yamanaka (1969); cited from earlier work
# [4] = tested on: Escherichia coli L-arabinose isomerase; details: read-out: Km for L-arabinose; Reference 3: Patrick and Lee (1968); cited from earlier work
# [5] = tested on: Lactobacillus plantarum L-arabinose isomerase; details: read-out: Km for L-arabinose; Reference 4: Heath et al. (1958); cited from earlier work
# [6] = tested on: Mycobacterium smegmatis L-arabinose isomerase; details: read-out: Km for L-arabinose; Reference 6: J. Bacteriol. 133: 413-414 (1978); cited from earlier work
# [7] = tested on: Aerobacter aerogenes L-arabinose isomerase; details: read-out: Km for L-arabinose; Reference 1: Yamanaka and Wood (1966); cited from earlier work
# [8] = end-product inhibition; cited from earlier work
# [9] = substrate: OC1OC[C@H](O)[C@H](O)[C@H]1O; test: purified protein, by the assay type; details: other: apparent Km; T. mathranii enzyme produced in E. coli; pH 6.9; 65.0 °C
# [10] = Substrate specificity: other aldo-hexoses, aldo-pentoses and deoxy-sugar; format: biochemical
# Method: as §1
# (§2) The obtained concentrations of the ketoses L-ribulose, D-tagatose or D-fuculose, respectively, were determined by the cysteine-carbazol-sulfuric acid method (Dische, Z. and Borenfreund, E. (1951) J. Biol. Chem. 192: 583-587). Samples were incubated at room temperature for 60 min and the absorbance at 560 nm was measured in a microplate reader. Standard curves showing the colour response of 0-5 mM ketose were made with D-tagatose and D-ribulose, since L-ribulose was not commercially available. (No standard curve was obtained for D-fuculose which was not commercially available.)
# [11] = Substrate specificity: D-galactose activity relative to L-arabinose activity; format: biochemical; details: molar ratio of keto-sugar, substrate 0.5 M, pH 6.9, 65° C.
# Method: as §1, §2
# The ratio was calculated from the cysteine-carbazol-sulfuric acid colour responses and the standard curves generated with ribulose and tagatose, respectively.
# [12] = Bioconversion of D-galactose to D-tagatose with free enzyme; format: biochemical; details: 65° C.
# Method: as §2
# Control samples without enzyme were treated similarly. Periodically, samples were taken and the concentration of D-tagatose was determined by the cystein-carbazol-sulfuric acid method as described above. The results are shown in Table 2.2A (30% D-galactose) and 2.2B (60% D-galactose).
# [13] = pH dependence, D-galactose assay; format: biochemical; details: D-galactose assays at pH 4, 5, 6, 7, 8 and 9
# Method: as §1, §2
# The buffer used for these assays was a mixture of 25 mM acetic acid, 25 mM 2-[N-morpholino]ethanesulfonic acid (MES), 5 mM MnCl2, and 25 mM tris[hydroxymethyl]-aminomethane (TRIS), which was titrated with HCl or NaOH.
# [14] = Substrate specificity: D-fucose colour response relative to L-arabinose; format: biochemical; details: 0.5 M D-fucose, cysteine-carbazol-sulfuric acid method
# Method: as §1, §2
# [15] = Temperature dependence, D-galactose assay; format: biochemical; details: temperature range of about 60-75° C.
# Method: as §1, §2
# [16] = initial D-galactose 30% (1.67 M), pH 6.9, 0 h
# [17] = initial D-galactose 30% (1.67 M), pH 6.9, 24 h
# [18] = initial D-galactose 30% (1.67 M), pH 6.9, 48 h
# [19] = initial D-galactose 30% (1.67 M), pH 6.9, 72 h
# [20] = initial D-galactose 60% (3.33 M), pH 6.9, 0 h
# [21] = initial D-galactose 60% (3.33 M), pH 6.9, 24 h
# [22] = initial D-galactose 60% (3.33 M), pH 6.9, 48 h
# [23] = initial D-galactose 60% (3.33 M), pH 6.9, 72 h
molecule,measurement,setting,value
Lactobacillus plantarum,amount of ketose at equilibrium,[1]; 10° C.,10%
same,amount of ketose at equilibrium,[1]; 25° C.,14%
same,amount of ketose at equilibrium,[1]; 53° C.,16%
[Cl][Mn][Cl] [MnCl2],restored L-arabinose isomerase activity,[2],100%
OC1OC[C@H](O)[C@H](O)[C@H]1O (stereo partly drawn) [L-arabinose],Km,[3],55 mM
same,Km,[4],60 mM
same,Km,[5],28 mM
same,Km,[6],~30 mM
same,Km,[7],33 mM
O=S(=O)([O-])[O-].[Fe+2] [FeSO4],restored L-arabinose isomerase activity,[2],76%
B1,inhibition by galactose,[8],not to be inhibited
same,inhibition by glucose,[8],only moderately inhibited
B2,Km,[9],80 mM and ˜80 mM
B3,enzyme activity with D-arabinose,[10]; substrate D-arabinose,No significant enzyme activity
same,enzyme activity with D-glucose,[10]; substrate D-glucose,No significant enzyme activity
same,enzyme activity with D-mannose,[10]; substrate D-mannose,No significant enzyme activity
same,enzyme activity with D-ribose,[10]; substrate D-ribose,No significant enzyme activity
same,enzyme activity with D-xylose,[10]; substrate D-xylose,No significant enzyme activity
same,enzyme activity with L-fucose,[10]; substrate L-fucose,No significant enzyme activity
same,enzyme activity with L-ribose,[10]; substrate L-ribose,No significant enzyme activity
same,D-galactose activity as percent of the L-arabinose activity,[11],21%
same,Conc. of D-tagatose,[12]; [16],0 mM
same,Percent bioconversion,[12]; [16],0
same,Conc. of D-tagatose,[12]; [17],427 mM
same,Percent bioconversion,[12]; [17],25
same,Conc. of D-tagatose,[12]; [18],450 mM
same,Percent bioconversion,[12]; [18],26
same,Conc. of D-tagatose,[12]; [19],422 mM
same,Percent bioconversion,[12]; [19],25
same,Conc. of D-tagatose,[12]; [20],0 mM
same,Percent bioconversion,[12]; [20],0
same,Conc. of D-tagatose,[12]; [21],462 mM
same,Percent bioconversion,[12]; [21],14
same,Conc. of D-tagatose,[12]; [22],542 mM
same,Percent bioconversion,[12]; [22],16
same,Conc. of D-tagatose,[12]; [23],622 mM
same,Percent bioconversion,[12]; [23],19
same,pH of highest activity,[13],8
same,colour response with D-fucose as percent of the response with L-arabinose,[14],46%
same,share of the maximum activity retained,[15],≥ 70%
